For this assay, the target named is T1, purified extracellular domain of the erbB-2 protein (human, UniProt P04626 23-652).
T1 construct: extracellular domain; also called erbB-2^ecd; soluble erbB-2 receptor
Briefly: flow cytometry. The method, then: Cell surface expression and erbB-2 receptor binding ability of the scFv(FRP5):hinge:ζ protein in transduced C196 CTL and in transduced Jurkat cells are confirmed by flow cytometry.
Single-cell suspensions of 5 ×10^5 viable cells (Jurkat cells, JFYZ.4 cells, C196 cells, CFYZ.1 cells) are stained with the purified extracellular domain of the erbB-2 protein (erbB-2^ecd, expressed in Sf9 insect cells using a baculovirus expression vector; Disis et al., Cancer Res. 54, 16–20 (1994)) for 1 hour followed by the FITC-conjugated anti-erbB-2 monoclonal antibody FSP77 (European patent application EP-A-502 812) for 45 min at 4° C. in 100 µl PBS containing 1% BSA and 0.1% sodium azide. FSP77 also is specific for the extracellular domain of the erbB-2 receptor, but recognizes a different epitope from mAb FRP5 (I. M. Harwerth et al., J. Biol. Chem. 21, 15160–15167 (1992)).
For orientation: Flow cytometry measures light scatter and fluorescence of single cells or particles in a stream.

Here are results for 1 molecule from patent US6984382 (dated 2006).

B1: scFv(FRP5):hinge:ζ protein (receptor)
chain: QIQLVQSGPELKKPGETVKISCKASGYPFTNYGMNWVKQAPGQGLKWMGWINTSTGESTFADDFKGRFDFSLETSANTAYLQINNLKSEDMATYFCARWEVYHGYVPYWGQGTTVTVSSGGGGSGGGGSGGGGSDIQLTQSHKFLSTSVGDRVSITCKASQDVYNAVAWYQQKPGQSPKLLIYSASSRYTGVPSRFTGSGSGPDFTFTISSVQAEDLAVYFCQQHFRTPFTFGSGTKLEIKALEISNSVMYFSSVVPVLQKVNSTTTKPVLRTPSPVHPTGTSQPQRPEDCRPRGSVKGTGLDFLEDPKLCYLLDGILFIYGVIITALYLRAKFSRSAETAANLQDPNQLYNELNLGRREEYDVLEKKRARDPEMGGKQQRRRNPQEGVYNALQKDKMAEAYSEIGTKGERRRGKGHDGLYQGLSTATKDTYDALHMQTLAPR
notes: Stood on the surface of transduced murine CTL C196 (clone CFYZ.1) and human Jurkat cells (clone JFYZ.4); On cells it is found as disulfide-linked homodimers and as heterodimers with endogenous ζ; also called scFv(FRP5):hinge:zeta; scFv:hinge:ζ
For the molecule B1, the binding result was “binds”.
